The results in this text go back to paper PMC2955198 (Cell, 2010).

Where “and” joins values, the source holds several entries; their conditions need not be identical. Equal entries are not always repeated.

B3: Csm1 1-181 (domain or fragment, S. cerevisiae, UniProt P25651 1-181, looked up)
chain: MDPLTVYKNSVKQQIDSADLLVANLVNENFVLSEKLDTKATEIKQLQKQIDSLNAQVKELKTQTSQQAENSEVIKDLYEYLCNVRVHKSYEDDSGLWFDISQGTHSGGSSDDYSIMDYKLGFVKGQAQVTEVIYAPVLKQRSTEELYSLQSKLPEYLFETLSFPLSSLNQFYNKIAKSLNK
B6: S. cerevisiae Csm1 full-length (natural protein, UniProt P25651 1-190, looked up)
chain: MDPLTVYKNSVKQQIDSADLLVANLVNENFVLSEKLDTKATEIKQLQKQIDSLNAQVKELKTQTSQQAENSEVIKDLYEYLCNVRVHKSYEDDSGLWFDISQGTHSGGSSDDYSIMDYKLGFVKGQAQVTEVIYAPVLKQRSTEELYSLQSKLPEYLFETLSFPLSSLNQFYNKIAKSLNKKREKKDETE
B8: Mtw1 (subunit of the purified MIND complex) (natural protein, S. cerevisiae, UniProt P39731 1-289, looked up)
chain: MSAPTMRSTSILTEHLGYPPISLVDDIINAVNEIMYKCTAAMEKYLLSKSKIGEEDYGEEIKSGVAKLESLLENSVDKNFDKLELYVLRNVLRIPEEYLDANVFRLENQKDLVIVDENELKKSEEKLREKVNDVELAFKKNEMLLKRVTKVKRLLFTIRGFKQKLNELLKCKDDVQLQKILESLKPIDDTMTLLTDSLRKLYVDSESTSSTEEVEALLQRLKTNGKQNNKDFRTRYIDIRTNNVLRKLGLLGDKEDEKQSAKPDARTQAGDIVSIDIEEPQLDLLDDVL

The target of series [1] is S. pombe Pcs1 full-length (S. pombe) (UniProt O13684). Put plainly: AUC.
Sequence of S. pombe Pcs1 full-length (S. pombe) (O13684 whole entry): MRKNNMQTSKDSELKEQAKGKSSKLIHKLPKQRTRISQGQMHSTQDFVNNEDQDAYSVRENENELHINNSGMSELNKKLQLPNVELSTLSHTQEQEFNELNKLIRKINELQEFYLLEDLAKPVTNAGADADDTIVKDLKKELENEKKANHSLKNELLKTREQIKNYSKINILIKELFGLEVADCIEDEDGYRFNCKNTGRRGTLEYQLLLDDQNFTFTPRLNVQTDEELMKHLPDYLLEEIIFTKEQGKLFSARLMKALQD
Series [2] has as its target Pcs1 85-222 (S. pombe) (UniProt O13684). Briefly: AUC.
The target in series [3] is B3. Briefly: AUC.
For series [4], the target named is S. pombe Pcs1 full-length (S. pombe) (UniProt O13684). Put plainly: AUC. The source holds these as a separate data set.
Series [5] has as its target B6. Briefly: AUC.
Series [6] concerns the molecule itself. Briefly: AUC.
Series [7] addresses T1, Dsn1 (subunit of the purified MIND complex) (S. cerevisiae, UniProt P40568 1-576).
T1 sequence (looked up): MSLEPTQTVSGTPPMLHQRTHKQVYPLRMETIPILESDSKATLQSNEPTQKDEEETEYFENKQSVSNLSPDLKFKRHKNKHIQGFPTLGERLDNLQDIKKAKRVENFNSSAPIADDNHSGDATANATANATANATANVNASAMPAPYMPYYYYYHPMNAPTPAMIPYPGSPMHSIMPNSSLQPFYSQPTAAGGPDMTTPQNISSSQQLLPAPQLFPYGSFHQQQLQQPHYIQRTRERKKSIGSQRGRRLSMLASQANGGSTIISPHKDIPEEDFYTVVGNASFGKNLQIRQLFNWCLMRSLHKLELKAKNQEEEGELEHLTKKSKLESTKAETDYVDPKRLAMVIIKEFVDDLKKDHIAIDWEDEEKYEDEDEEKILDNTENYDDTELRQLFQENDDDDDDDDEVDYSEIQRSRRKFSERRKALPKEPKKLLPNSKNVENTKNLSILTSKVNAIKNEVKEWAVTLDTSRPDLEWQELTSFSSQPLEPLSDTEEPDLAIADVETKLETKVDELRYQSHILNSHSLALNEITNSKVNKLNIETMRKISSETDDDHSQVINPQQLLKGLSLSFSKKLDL
Briefly: co-purification of a recombinant complex.

Series [8] deals with B8. Briefly: co-purification of a recombinant complex.

Molecule “S. pombe Pcs1 full-length (from UniProt O13684 1-261) (natural protein)” yielded a stoichiometry N in series [1] of 2.
In turn, “Pcs1 85-222 (from UniProt O13684 85-222) (domain or fragment)” had a stoichiometry N in series [2] of 2.
As to TTLLQLLSNYYKAKLDSERIYNEYVQSQY (peptide, UniProt Q04087 2-30, looked up) [peptide containing Lrs4 residues 2-30], in series [3], the “stoichiometry N” value is 4 copies of Csm1 in the complex and 2 copies of Lrs4 in the complex.

B1: Mde4 1-125 (domain or fragment)
chain: MSTISTSTDSKLDNLGLSVTSRRNQILFYLSKALNLAHLLRSDSLQKSFLDALKQSATDSELLHKNLDEIKFLQNEKLNNEKLLEQEQNEANDYRLKVERLEHKISDYVQEINSLNSQLQIQKSN
In series [4], B1 returned a stoichiometry N (copies of Mde4 in the complex) of 2 and a stoichiometry N (copies of Pcs1 in the complex) of 4.

B2: Lrs4 1-102 (domain or fragment, S. cerevisiae, UniProt Q04087 1-102, looked up)
chain: MTTLLQLLSNYYKAKLDSERIYNEYVQSQYEFASLDKLNNNKGDPKKVVDETLFLQRQIAQLNKQLQLSFQENEKLLSVQKNQKALYQSKLSSKDAFIDDLK
In the case of B2, in series [5], the “stoichiometry N” value is 4 copies of Csm1 in the complex and 2 copies of Lrs4 in the complex.
For B3, the “stoichiometry N” value in series [6] amounted to 2.

B4: Lrs4 full-length (natural protein, S. cerevisiae, UniProt Q04087 1-347, looked up)
chain: MTTLLQLLSNYYKAKLDSERIYNEYVQSQYEFASLDKLNNNKGDPKKVVDETLFLQRQIAQLNKQLQLSFQENEKLLSVQKNQKALYQSKLSSKDAFIDDLKLKLKVEQISVDKHNKERTPSTGRDEQQRNSKAAHTSKPTIHLLSPIVNRDKPNNQTNDRGGNDPDSPTSQRRSRGLRSLLSSGKNTIFDSISKNLDDEINENAHIRNDTTSSKIAGKSPSRLSALQKSPELRKERNNMILKEHILRSKDDQNITSSRKLDNIELSSIGDSTAMTSRSSTVNANDILGNEENDGITKLKRVNKLTSSPVKRDCSTNKKRKLTKQRIATLPNSDEELSNNLNVDEFV
As for B4, in series [5], the “stoichiometry N” value was 4 copies of Csm1 in the complex and 2 copies of Lrs4 in the complex.

B5: Mde4 full-length (natural protein)
chain: MSTISTSTDSKLDNLGLSVTSRRNQILFYLSKALNLAHLLRSDSLQKSFLDALKQSATDSELLHKNLDEIKFLQNEKLNNEKLLEQEQNEANDYRLKVERLEHKISDYVQEINSLNSQLQIQKSNPEKHEDAVSQNRLRGSLDTVSSPSKTHKANKDEKATRLHLIIANLKKALKEKDAEVLNLQSHVSSKESELDRFKIKLETEESNWKVRLQVLESKLATQDRKLRMQKKSTERKSLLVSPRVSSPKLFSPSKQAIMGTRQPNATSGSPLSVTPFLQKTSTSIGLSSSPPQSSPSAQSSQPFSRDKYPHSMTVSPSNARYLKKHLDDTIPSNVSDINHNDHLKIPQSPSSLSPSKIPIRKKRKLKDTVSNCEFTEEDSESSFLLETIQPTKSTLRRSISPLKKRNDEINELKKGFTMKK
For the molecule B5, in series [4], the stoichiometry N (copies of Mde4 in the complex) worked out at 2 and the stoichiometry N (copies of Pcs1 in the complex) amounted to 4.
Take B6: the “stoichiometry N” value in series [6] came to 2.

B7: Mde4 1-231 (domain or fragment)
chain: MSTISTSTDSKLDNLGLSVTSRRNQILFYLSKALNLAHLLRSDSLQKSFLDALKQSATDSELLHKNLDEIKFLQNEKLNNEKLLEQEQNEANDYRLKVERLEHKISDYVQEINSLNSQLQIQKSNPEKHEDAVSQNRLRGSLDTVSSPSKTHKANKDEKATRLHLIIANLKKALKEKDAEVLNLQSHVSSKESELDRFKIKLETEESNWKVRLQVLESKLATQDRKLRMQK
For B7, in series [4], the stoichiometry N (copies of Mde4 in the complex) was found to be 2 and the stoichiometry N (copies of Pcs1 in the complex) came to 4.
Consider B8, for which the binding result in series [7] is listed as “binds”.

B9: Mde4 1-77 (domain or fragment)
chain: MSTISTSTDSKLDNLGLSVTSRRNQILFYLSKALNLAHLLRSDSLQKSFLDALKQSATDSELLHKNLDEIKFLQNEK
With B9, in series [4], the stoichiometry N (copies of Mde4 in the complex) turned out to be 2 and the stoichiometry N (copies of Pcs1 in the complex) is 4.

B10: Csm1 69-190 (domain or fragment, S. cerevisiae, UniProt P25651 69-190, looked up)
chain: ENSEVIKDLYEYLCNVRVHKSYEDDSGLWFDISQGTHSGGSSDDYSIMDYKLGFVKGQAQVTEVIYAPVLKQRSTEELYSLQSKLPEYLFETLSFPLSSLNQFYNKIAKSLNKKREKKDETE
On to B10, for which, in series [6], the “stoichiometry N” value was 2.

B11: Lrs4 1-130 (domain or fragment, S. cerevisiae, UniProt Q04087 1-130, looked up)
chain: MTTLLQLLSNYYKAKLDSERIYNEYVQSQYEFASLDKLNNNKGDPKKVVDETLFLQRQIAQLNKQLQLSFQENEKLLSVQKNQKALYQSKLSSKDAFIDDLKLKLKVEQISVDKHNKERTPSTGRDEQQR
On to B11, for which, in series [5], the “stoichiometry N” value was 4 copies of Csm1 in the complex and 2 copies of Lrs4 in the complex.

B12: Nnf1 (subunit of the purified MIND complex) (natural protein, S. cerevisiae, UniProt P47149 1-201, looked up)
chain: MVNSHGIRYIRLKQVFNRALDQSISKLQSWDKVSSCFPQYVNSKQGAINVANCQRQLTEFWTELCQREFKEIMEERNVEQKLNELDELILEAKERYTDRDQDEVNKGPAIDELSSKELVECHLYSQRMHAIHEIDERLAKVNEMNDQLAQELKDLETQVEVEKNEIGKMYDEYLGSHTDQPANVLLVQSLNDMVLELKENY
Regarding B12, the binding result in series [8] was “binds”.

What is called stoichiometry N is a count of units in the complex or per binding partner.
